Experimental data from PMC6987189, “Native aggregation is a common feature among triosephosphate isomerases of different species” (Scientific Reports, 2020).

What was measured:
Experiment in all cases: purified protein
Conditions in all cases: GAP to DHAP direction, 25 °C, 100 mM TEA, 10 mM EDTA, 0.2 mM NADH, GAP 0.3 to 3 mM
[1] = substrate: O=C[C@H](O)COP(=O)(O)O; format: biochemical, Saccharomyces cerevisiae
[2] = substrate: O=C[C@H](O)COP(=O)(O)O; format: biochemical, Trypanosoma brucei
[3] = substrate: O=C[C@H](O)COP(=O)(O)O; format: biochemical, Entamoeba histolytica
[4] = substrate: O=C[C@H](O)COP(=O)(O)O; format: biochemical, Taenia solium
[5] = substrate: O=C[C@H](O)COP(=O)(O)O; format: biochemical, Plasmodium falciparum
[6] = substrate: O=C[C@H](O)COP(=O)(O)O; format: biochemical, Leishmania mexicana
[7] = substrate: O=C[C@H](O)COP(=O)(O)O; format: biochemical, Trypanosoma cruzi
[8] = substrate: O=C[C@H](O)COP(=O)(O)O; format: biochemical, Thermus thermophilus

B1: ScTIM (Saccharomyces cerevisiae S288C) (protein)
chain: ARTFFVGGNFKLNGSKQSIKEIVERLNTASIPENVEVVICPPATYLDYSVSLVKKPQVTVGAQNAYLKASGAFTGENSVDQIKDVGAKWVILGHSERRSYFHEDDKFIADKTKFALGQGVGVILCIGETLEEKKAGKTLDVVERQLNAVLEEVKDWTNVVVAYEPVWAIGTGLAATPEDAQDIHASIRKFLASKLGDKAASELRILYGGSANGSNAVTFKDKADVDGFLVGGASLKPEFVDIINSRN
notes: recombinant, E. coli BL21(DE3)pLysS, plasmid pKK233-3, purified; dimer plus higher aggregates
Protein B1 has a Km [1] of 790 ± 100 µM, a kcat [1] of 8690 ± 142 s⁻¹ and a kcat/Km [1] of 1.1e+07 M⁻¹ s⁻¹.

B2: TbTIM (Trypanosoma brucei brucei) (protein)
chain: MSKPQPIAAANWKCNGSQQSLSELIDLFNSTSINHDVQCVVASTFVHLAMTKERLSHPKFVIAAQNAIAKSGAFTGEVSLPILKDFGVNWIVLGHSERRAYYGETNEIVADKVAAAVASGFMVIACIGETLQERESGRTAVVVLTQIAAIAKKLKKADWAKVVIAYEPVWAIGTGKVATPQQAQEAHALIRSWVSSKIGADVAGELRILYGGSVNGKNARTLYQQRDVNGFLVGGASLKPEFVDIIKATQ
notes: recombinant, E. coli BL21(DE3)pLysS, pET-3a, purified; dimer plus higher aggregates
Work on B2 yielded a Km [2] of 450 ± 50 µM, a kcat [2] of 5170 ± 117 s⁻¹ and a kcat/Km [2] of 1.15e+07 M⁻¹ s⁻¹.

B3: EhTIM (Entamoeba histolytica HM-1:IMSS) (protein)
chain: MSARKFVVGGNWKCNGTLASIETLTKGVAASVDAELAKKVEVIVGVPFIYIPKVQQILAGEANGANILVSAENAWTKSGAYTGEVHVGMLVDCQVPYVILGHSERRQIFHESNEQVAEKVKVAIDAGLKVIACIGETEAQRIANQTEEVVAAQLKAINNAISKEAWKNIILAYEPVWAIGTGKTATPDQAQEVHQYIRKWMTENISKEVAEATRIQYGGSVNPANCNELAKKADIDGFLVGGASLDAAKFKTIINSVSEKF
notes: recombinant, E. coli BL21(DE3)pLysS, plasmid given as pRET, purified; dimer plus higher aggregates
B3 was tested, and the Km [3] was 140 ± 30 µM, the kcat [3] was 3650 ± 254 s⁻¹ and the kcat/Km [3] was 2.5e+07 M⁻¹ s⁻¹.

B4: TsTIM (Taenia solium) (protein)
chain: MTRKLFVGGNWKMNGSYSHINTFFDTLQKADTDPNADIVIGVPACYLKYAQDKAPKGIKIAAENCYKVGSGAFTGEISTEMIKDCGCEWVILGHSERRHIFGESNELIGEKVKHALDSGLNVIPCIGELLSEREAGKTNDVCFAQMDAIAKNVPSKEAWDKVVIAYEPVWAIGTGKTATPAQAQEVHKVVRDWIRKHVDAGIADKVRILYGGSVTASNAKDLGTQPDVDGFLVGGASLKPDFITIINARR
notes: recombinant, E. coli BL21(DE3)pLysS, pRSET (His tag), purified; dimer plus higher aggregates
In the case of B4, the Km [4] is reported as 520 ± 30 µM, the kcat [4] is reported as 2460 ± 101 s⁻¹ and the kcat/Km [4] is reported as 4.7e+06 M⁻¹ s⁻¹.

B5: PfTIM (Plasmodium falciparum) (protein)
chain: MARKYFVAANWKCNGTLESIKSLTNSFNNLDFDPSKLDVVVFPVSVHYDHTRKLLQSKFSTGIQNVSKFGNGSYTGEVSAEIAKDLNIEYVIIGHFERRKYFHETDEDVREKLQASLKNNLKAVVCFGESLEQREQNKTIEVITKQVKAFVDLIDNFDNVILAYEPLWAIGTGKTATPEQAQLVHKEIRKIVKDTCGEKQANQIRILYGGSVNTENCSSLIQQEDIDGFLVGNASLKESFVDIIKSAM
notes: recombinant, E. coli BL21(DE3)pLysS, pTRC99A, purified (extra low-mass band on SDS-PAGE); dimer plus higher aggregates
Work on B5 yielded a Km [5] of 810 ± 40 µM, a kcat [5] of 5846 ± 39 s⁻¹ and a kcat/Km [5] of 7.3e+06 M⁻¹ s⁻¹.

B6: LmTIM (Leishmania mexicana) (protein)
chain: MSAKPQPIAAANWKCNGTTASIEKLVQVFNEHTISHDVQCVVAPTFVHIPLVQAKLRNPKYVISAENAIAKSGAFTGEVSMPILKDIGVHWVILGHSERRTYYGETDEIVAQKVSEACKQGFMVIACIGETLQQREANQTAKVVLSQTSAIAAKLTKDAWNQVVLAYEPVWAIGTGKVATPEQAQEVHLLLRKWVSENIGTDVAAKLRILYGGSVNAANAATLYAKPDINGFLVGGASLKPEFRDIIDATR
notes: recombinant, E. coli BL21(DE3)pLysS, pET-3aHIS (His tag), purified; dimer plus higher aggregates
B6 gave a Km [6] of 470 ± 10 µM, a kcat [6] of 2800 ± 164 s⁻¹ and a kcat/Km [6] of 5.9e+06 M⁻¹ s⁻¹.

B7: TcTIM (Trypanosoma cruzi) (protein)
chain: MASKPQPIAAANWKCNGSESLLVPLIETLNAATFDHDVQCVVAPTFLHIPMTKARLTNPKFQIAAQNAITRSGAFTGEVSLQILKDYGISWVVLGHSERRLYYGETNEIVAEKVAQACAAGFHVIVCVGETNEEREAGRTAAVVLTQLAAVAQKLSKEAWSRVVIAYEPVWAIGTGKVATPQQAQEVHELLRRWVRSKLGTDIAAQLRILYGGSVTAKNARTLYQMRDINGFLVGGASLKPEFVEIIEATK
notes: as for B2
B7 gave a Km [7] of 440 ± 50 µM, a kcat [7] of 6000 ± 230 s⁻¹ and a kcat/Km [7] of 1.36e+07 M⁻¹ s⁻¹.

B8: TtTIM (Thermus thermophilus HB8) (protein)
chain: MRRVLVAGNWKMHKTPSEARVWFAELKRLLPPLQSEAAVLPAFPILPVAKEVLAETQVGYGAQDVSAHKEGAYTGEVSARMLSDLGCRYAIVGHSERRRYHGETDALVAEKAKRLLEEGITPILCVGEPLEVREKGEAVPYTLRQLRGSLEGVEPPGPEALVIAYEPVWAIGTGKNATPEDAEAMHQAIRKALSERYGEAFASRVRILYGGSVNPKNFADLLSMPNVDGGLVGGASLELESFLALLRIAG
notes: as for B6
B8 was tested, and the Km [8] was 60 ± 10 µM, the kcat [8] was 1788 ± 0.9 s⁻¹ and the kcat/Km [8] was 3e+07 M⁻¹ s⁻¹.
